Source: PMC6981927, “In Situ Proteolysis Condition-Induced Crystallization of the XcpVWX Complex in Different Lattices” (International Journal of Molecular Sciences, 2020)

T1: XcpX (29–313), soluble truncation of the minor pseudopilin XcpX (Pseudomonas aeruginosa PAO1, UniProt Q00518 29-313)
T1 construct: XcpX, minor pseudopilin of the type II secretion system, Pseudomonas aeruginosa PAO1, residues 29-313; Tags removed by TEV protease; residues left from the TEV site and the cloning site may remain at the N-terminus; In the crystals the complex was under in situ chymotrypsin proteolysis; some loops are missing in the model of 6UTU; source: E. coli (BL21 (DE3); results say codon plus cells), …
T1 sequence: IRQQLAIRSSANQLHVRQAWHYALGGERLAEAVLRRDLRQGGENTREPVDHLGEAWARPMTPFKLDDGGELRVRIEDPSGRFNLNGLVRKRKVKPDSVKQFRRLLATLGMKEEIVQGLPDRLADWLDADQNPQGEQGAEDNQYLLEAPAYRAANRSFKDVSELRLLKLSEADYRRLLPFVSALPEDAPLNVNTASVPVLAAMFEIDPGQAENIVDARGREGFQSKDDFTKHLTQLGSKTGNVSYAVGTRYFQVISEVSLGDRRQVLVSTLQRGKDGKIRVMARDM

B1: XcpV (28–129), soluble truncation of the minor pseudopilin XcpV (domain or fragment)
chain: SASARSLQNASRLEDKTLAMWIADNRLNELQLEQTPPSSGRNQGELEFAGRRWEWRTQVDSTAEQDMRRVIVWVAAKPLGRERGSIEERAAARLVGFLGSQP
notes: XcpV, minor pseudopilin of the type II secretion system, Pseudomonas aeruginosa PAO1, residues 28-129; Tags removed by TEV protease; residues left from the TEV site and the cloning site may remain at the N-terminus; In the crystals the complex was under in situ chymotrypsin proteolysis; loops 59-66 and 103-113 are missing in the model of 6UTU; source: E. coli (BL21 (DE3)); results say codon plus …
B2: XcpW (28–237), soluble truncation of the minor pseudopilin XcpW (domain or fragment)
chain: RMFDSVMQTDQATRVQEQRMRELVRAMGALERDLTQAVERPVRDELGDNRGAFLSEGENDQIVEFTRGGWRNPLGQARSRLQRVRWSLSGETLERRYWLVLDRAQDSKPRVQQVLDGVTALSWRFLDKEHNWQGHWPTDEGSEEERLESLPLAVEMTLEHRHYGKLVRVWRLLDPPLKQDQPQGQPGGENGENGEGGVPQPPEGMPGAPE
notes: XcpW, minor pseudopilin of the type II secretion system, Pseudomonas aeruginosa PAO1, residues 28-237; Tags removed by TEV protease; residues left from the TEV site and the cloning site may remain at the N-terminus; In the crystals the complex was under in situ chymotrypsin proteolysis; source: E. coli (BL21 (DE3); results say codon plus cells), purified (Ni-NTA, TEV cleavage, second Ni-NTA, SEC …)

Key:
[1] = target: T1, XcpX (29–313), soluble truncation of …; test: SEC; three purified tag-free pseudopilins mixed at a molar ratio of 1.5:1:1 (XcpV:XcpW:XcpX), 4 °C overnight; Superdex 75, 25 mM HEPES pH 7.0, 150 mM NaCl, 1 mM CaCl2; peak fractions analysed by SDS-PAGE; settings: both partners purified
[2] = target: B2; test: as above; settings: both partners purified

## B1
[1]
  stoichiometry N: ~1
[2]
  stoichiometry N: ~1

## B2
[1]
  stoichiometry N: ~1
